The record followed here is US20170320960A1 (AbbVie / Abbott, published 2017).

Assay [1] deals with T1, hMFI2 Tf-like Domain 1 (TLD1), amino acids 20-357, displayed on yeast (human, UniProt P08582 20-357).
T1 construct: also called TFLD1
T1 sequence: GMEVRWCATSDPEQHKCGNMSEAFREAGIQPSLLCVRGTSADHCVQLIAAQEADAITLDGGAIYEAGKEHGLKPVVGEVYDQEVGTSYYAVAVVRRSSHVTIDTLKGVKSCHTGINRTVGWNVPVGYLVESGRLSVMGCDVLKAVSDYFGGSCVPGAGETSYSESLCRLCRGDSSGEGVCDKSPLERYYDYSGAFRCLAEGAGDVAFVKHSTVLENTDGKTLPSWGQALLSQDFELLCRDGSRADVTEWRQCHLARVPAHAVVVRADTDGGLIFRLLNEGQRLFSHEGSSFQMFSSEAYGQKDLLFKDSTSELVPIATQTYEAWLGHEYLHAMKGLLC
The assay is described as follows: flow cytometry on yeast displaying hMFI2 domains. (A flow cytometer gives signals particle by particle.)

Assay [2] concerns the target T1, hMFI2 Tf-like Domain 1 (TLD1), amino …. The assay is described as follows: flow cytometry on yeast displaying hMFI2 domains. The source holds these as a separate data set.

Read-outs that look alike come from different tables or passages of the source.

B1: SC57.27 (antibody, V domains shown)
VH: ELKLVESGGDLVKPGGSLKLSCAASGFSFNNYAMSWVRQTPEKRLEWVASISSGGTTFYPDSVKGRFTMSRDHARNILYLQMNSLRSEDTAMYYCVRGQWLSLYSMDYWGQGTSVTVSS
VL: DIQMTQSPVSLSASVGETVTITCRASEIIYSYLAWYQQKQGKSPQLLVYNAKTLAEGVPSRFSGSGSGTQFSLKINSLQPEDFGTYYCQHHYGVPVTFGAGTKLELK
Turning to B1, in assay [1], the binding result is reported as “binds”.

B2: SC57.2 (antibody, V domains shown)
VH: QVQLKQSGPGLVQPSQSLSITCTVSGFSLTDYGVHWVRQSPGKGLDWLGVIWSGGNTDYNAAFISRLSISKDNSKSQIFFEMNSLQDTDTAIYYCARQLHYYGPFAYWGQGTLVTVSA
VL: QIVLTQSPAIMSASPGEKVTMTCSASSSVSYMHWYQQKSGTSPKRWIYDTSKLASGVPVRFSGSGSGTSYSLTISSIEADDAATYYCQQWSRTPPTFGGGTKLEIK
On to B2, for which, in assay [1], the binding result is listed as “binds”.

B3: SC57.7 (antibody, V domains shown)
VH: GVQVVESGGGVVQPGGSLKLSCAASGFTFSSYAMSWVRQTPEKRLEWVAYLSRGGGSTYYLDTVKGRFTISRDNAKNTLYLQMNSLKSEDTAMYYCARLDGYNWYFDVWGAGTPVTVSS
VL: DIVMSQSPSSLAVSAGEKVTMSCKSSQSLLHSRIRKNYLAWYQQKPGQSPKLLIYWASTRESGVPDRFTGSGSGTDFTLTISSVQAEDLAVYYCKQSYNLFTFGGGTKLEIK
For B3, the binding result in assay [1] is “binds”.

B4: SC57.48 (antibody, V domains shown)
VH: GVQVVESGGGVVQPGGSLKLSCAASGFTFSSYAMSWVRQTPEKRLEWVAYLSRGGGSTYYLDTVKGRFTISRDNAKNTLYLQMNSLKSEDTAMYYCARLDGYNWYFDVWGAGTPVTVSS
VL: DIVMSQSPSSLAVSAGEKVTMSCKSSQSLLHSRIRKNYLAWYQQKPGQSPKLLIYWASTRESGVPDRFTGSGSGTDFTLTISSVQAEDLAVYYCKQSYNLFTFGGGTKLEIK
Consider B4, for which the binding result in assay [2] is reported as “binds”.
